The values that follow come from paper PMC11327267 (Nature Communications, 2024).

For this test, the target named is T1, human FIGNL1ΔN (fidgetin-like 1 in which the N-terminal 284 aa were deleted) (human, UniProt Q6PIW4 285-674).
T1 sequence: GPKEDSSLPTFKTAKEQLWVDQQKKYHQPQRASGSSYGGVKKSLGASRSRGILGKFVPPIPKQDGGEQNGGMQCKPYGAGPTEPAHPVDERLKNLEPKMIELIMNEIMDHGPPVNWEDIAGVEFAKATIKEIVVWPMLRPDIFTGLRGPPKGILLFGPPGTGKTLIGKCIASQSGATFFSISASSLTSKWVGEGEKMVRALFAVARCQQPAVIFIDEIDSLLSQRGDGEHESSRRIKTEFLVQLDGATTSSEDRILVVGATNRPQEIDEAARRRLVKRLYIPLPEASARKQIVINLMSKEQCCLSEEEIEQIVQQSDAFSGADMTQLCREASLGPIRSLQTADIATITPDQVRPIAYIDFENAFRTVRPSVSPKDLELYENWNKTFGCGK
The test can be described thus: native gel or EMSA. Background: In EMSA bound probe runs differently from free probe, usually more slowly.

B1: human RAD51 (natural protein)
chain: MAMQMQLEANADTSVEEESFGPQPISRLEQCGINANDVKKLEEAGFHTVEAVAYAPKKELINIKGISEAKADKILAEAAKLVPMGFTTATEFHQRRSEIIQITTGSKELDKLLQGGIETGSITEMFGEFRTGKTQICHTLAVTCQLPIDRGGGEGKAMYIDTEGTFRPERLLAVAERYGLSGSDVLDNVAYARAFNTDHQTQLLYQASAMMVESRYALLIVDSATALYRTDYSGRGELSARQMHLARFLRMLLRLADEFGVAVVITNQVVAQVDGAAMFAADPKKPIGGNIIAHASTTRLYLRKGRGETRICKIYDSPCLPEAEAMFAINADGVGDAKD
For B1, the binding result is recorded as “binds”.

B2: human DMC1 (natural protein)
chain: MKEDQVVAEEPGFQDEEESLFQDIDLLQKHGINVADIKKLKSVGICTIKGIQMTTRRALCNVKGLSEAKVDKIKEAANKLIEPGFLTAFEYSEKRKMVFHITTGSQEFDKLLGGGIESMAITEAFGEFRTGKTQLSHTLCVTAQLPGAGGYPGGKIIFIDTENTFRPDRLRDIADRFNVDHDAVLDNVLYARAYTSEHQMELLDYVAAKFHEEAGIFKLLIIDSIMALFRVDFSGRGELAERQQKLAQMLSRLQKISEEYNVAVFVTNQMTADPGATMTFQADPKKPIGGHILAHASTTRISLRKGRGELRIAKIYDSPEMPENEATFAITAGGIGDAKE
On to B2, for which the binding result was “binds”.
